Results published in patent US20260184794A1 (MOMENTA PHARMACEUTICALS, published 2026).
Numbering of substitutions follows the chain as printed.

T1: human α11 expressed on CHO-K1 cells (human, UniProt Q9UKX5 23-1188)
T1 sequence (Q9UKX5 whole entry, looked up): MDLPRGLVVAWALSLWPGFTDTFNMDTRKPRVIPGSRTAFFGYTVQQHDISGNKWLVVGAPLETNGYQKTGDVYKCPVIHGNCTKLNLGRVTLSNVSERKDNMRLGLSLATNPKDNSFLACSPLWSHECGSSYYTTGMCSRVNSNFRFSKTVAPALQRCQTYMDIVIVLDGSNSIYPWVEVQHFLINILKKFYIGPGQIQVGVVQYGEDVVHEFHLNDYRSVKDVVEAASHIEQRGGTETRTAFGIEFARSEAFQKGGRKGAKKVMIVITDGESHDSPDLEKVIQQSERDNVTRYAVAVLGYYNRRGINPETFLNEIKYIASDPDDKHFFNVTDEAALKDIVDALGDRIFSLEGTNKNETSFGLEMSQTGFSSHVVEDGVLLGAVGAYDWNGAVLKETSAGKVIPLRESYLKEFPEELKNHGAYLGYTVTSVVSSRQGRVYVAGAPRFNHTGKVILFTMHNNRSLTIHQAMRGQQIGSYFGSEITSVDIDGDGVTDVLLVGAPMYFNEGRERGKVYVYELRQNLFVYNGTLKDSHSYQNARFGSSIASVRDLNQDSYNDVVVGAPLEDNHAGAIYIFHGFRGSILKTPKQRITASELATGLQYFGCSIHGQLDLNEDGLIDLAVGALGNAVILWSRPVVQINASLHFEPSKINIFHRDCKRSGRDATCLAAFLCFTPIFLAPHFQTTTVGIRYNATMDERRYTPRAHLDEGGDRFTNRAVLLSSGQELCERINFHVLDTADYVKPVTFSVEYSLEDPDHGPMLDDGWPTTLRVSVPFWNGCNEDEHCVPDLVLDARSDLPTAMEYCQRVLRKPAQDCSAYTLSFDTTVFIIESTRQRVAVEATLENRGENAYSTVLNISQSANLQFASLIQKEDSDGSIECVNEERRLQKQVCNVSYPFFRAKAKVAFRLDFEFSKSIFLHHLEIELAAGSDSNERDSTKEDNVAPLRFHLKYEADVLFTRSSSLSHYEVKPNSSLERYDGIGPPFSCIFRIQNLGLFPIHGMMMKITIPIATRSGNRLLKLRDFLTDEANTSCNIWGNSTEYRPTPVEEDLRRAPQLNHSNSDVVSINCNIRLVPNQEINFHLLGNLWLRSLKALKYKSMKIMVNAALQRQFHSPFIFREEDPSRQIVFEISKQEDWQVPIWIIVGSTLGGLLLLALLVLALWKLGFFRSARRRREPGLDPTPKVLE

B1: 79E3E3 (antibody, V domains shown)
VH: QIQLVQSGPEVKKPGESVKISCKASGYTFTDYAMNWVKQAPGNGLKWMGWINTQTGKPTYADDFKQRFVFSLETSARTTYLQINNLNIEDTATYFCTRLGTGNTKGFAYWGQGTLVTVSS
VL: DILINQSPASLTVSAGERVTMSCKSSQSLLYSENNQDYLAWYQQKPGQFPKLLIYGASNRHTGVPDRFTGSGSGTDFTLTISSVQAEDLADYYCEQTYRYPFTFGSGTKLEIK
notes: Rat hybridoma antibody; also called Wild Type
B2: 1994-01-C7 variant 54 (antibody, V domains shown)
VH: QVQLVQSGAEVKKPGASVKVSCKASGYTFTSYGISWVRQAPGQGLEWMGWISAYNANTNYAQKLQGRVTMTTDTSTSTAYMELRSLRSDDTAAYYCARVTGITGTTIGPWGQGTMVTVSS
VL: DIQMTQSPSSLSASVGDRVTITCRASQSISSYLNWYQQKPGKAPKLLIYDASSLESGVPSRFSGSGSGTEFTLTISSLQPDDFAVYYCQQYNNWPQTFGQGTKVEIK
B3: 1994-01-C7 variant 58 (antibody, V domains shown)
VH: B2 VH with T58V
VL: B2 VL
B4: 1994-01-C7 (antibody, V domains shown)
VH: B2 VH with A56G, G108D
VL: B2 VL
notes: Fully human, from phage display (scFv converted to IgG); also called 1994-01-C7 (#9); 1994-01-C07
B5: 1994-01-C7 variant 60 (antibody, V domains shown)
VH: B2 VH with A56S
VL: B2 VL
B6: 16E10 (antibody, V domains shown)
VH: QSLEESGGDLVKPGASLTLTCRVSGFSFSSSYYMCWVRQAPGKGLEWIACIGTTRGSTYYATWAKGRFTISKISSTTVTLQMTSLTDADTATYFCARDATGYRINTIGLYFNLWGPGTLVTVSS
VL: ELTQTPSSVEAAVGGTPTIKCQASQTIYSYLSWYQQKPGQPPKLLIYEASKLASGVPSRFSGSGSGTDYTLTISDLECADAATYYCQSYHGTASTEYNTFGGGTEVVVK

Experiments:
[1] = molecular target: T1, human α11 expressed on CHO-K1 cells; experiment: cell-based or functional assay
[2] = molecular target: T1, human α11 expressed on CHO-K1 cells; experiment: flow cytometry on CHO cells expressing human α11 (CHO-α11β1 binding)
Experimental: (§1) 200,000 cells (wild-type CHO-K1 cells or CHO-K1 cells expressing human α11) were incubated with each antibody at desired concentrations in FACS buffer for 30 min at 4° C. Then, the cells were washed with FACS buffer and incubated with secondary antibody at 1:100 dilution for 30 minutes at 4° C. Cells were then washed and fixed with 1% PF A in PBS for 20 minutes at room temperature; washed again and read on a cytometer in FACS buffer.

[3] = molecular target: T2, α11β1 on human pulmonary myofibroblasts (human, UniProt Q9UKX5 23-1188; P05556 21-798); experiment: flow cytometry on TGFβ1-treated human pulmonary fibroblasts (myofibroblasts)
T2 construct: whole, on cells; The cells are not transfected; also called HPF/MF
Experimental: (§2) Human Pulmonary Fibroblasts (ScienCell) were cultured in complete Fibroblast Growth Medium (ScienCell) until 80% confluent in T-150 flasks. Cells were washed and harvested using Accutase. Cells were seeded into T-150 flasks at 7,500 cells/cm² in complete FGF and cultured for 72 hours. Cells were then washed and starved in serum reduced medium for 24 hours. After starvation, cells were treated with TGFβ1 (R&D Systems) for 72 hours. Cells were harvested using Accutase and seeded in 96-well conical bottom plates. Cells were blocked with Heat Inactived Fetal Bovine Serum (Gibco) for 30 minutes at 4° C. Cells were then incubated with anti-al I antibodies at the doses described in each figure for 30 minutes at 4° C. A human anti-al I antibody (Creative BioLabs) was included as a positive control as well as the appropriate IgG isotype negative controls. Cells were washed twice and incubated with PE conjugated secondary antibodies specific to the IgG class of the anti-α11 antibodies being tested for 30 minutes at 4° C. Cells were washed twice and fixed in 1% PF A for 30 minutes. Cells were acquired on a FACS Verse […]. Data were analyzed by gating on single cells and determining the geometric Mean Fluorescence Intensity (gMFI) in the PE channel for each sample.
Target sequence in this assay (P05556 21-798, one chain of several): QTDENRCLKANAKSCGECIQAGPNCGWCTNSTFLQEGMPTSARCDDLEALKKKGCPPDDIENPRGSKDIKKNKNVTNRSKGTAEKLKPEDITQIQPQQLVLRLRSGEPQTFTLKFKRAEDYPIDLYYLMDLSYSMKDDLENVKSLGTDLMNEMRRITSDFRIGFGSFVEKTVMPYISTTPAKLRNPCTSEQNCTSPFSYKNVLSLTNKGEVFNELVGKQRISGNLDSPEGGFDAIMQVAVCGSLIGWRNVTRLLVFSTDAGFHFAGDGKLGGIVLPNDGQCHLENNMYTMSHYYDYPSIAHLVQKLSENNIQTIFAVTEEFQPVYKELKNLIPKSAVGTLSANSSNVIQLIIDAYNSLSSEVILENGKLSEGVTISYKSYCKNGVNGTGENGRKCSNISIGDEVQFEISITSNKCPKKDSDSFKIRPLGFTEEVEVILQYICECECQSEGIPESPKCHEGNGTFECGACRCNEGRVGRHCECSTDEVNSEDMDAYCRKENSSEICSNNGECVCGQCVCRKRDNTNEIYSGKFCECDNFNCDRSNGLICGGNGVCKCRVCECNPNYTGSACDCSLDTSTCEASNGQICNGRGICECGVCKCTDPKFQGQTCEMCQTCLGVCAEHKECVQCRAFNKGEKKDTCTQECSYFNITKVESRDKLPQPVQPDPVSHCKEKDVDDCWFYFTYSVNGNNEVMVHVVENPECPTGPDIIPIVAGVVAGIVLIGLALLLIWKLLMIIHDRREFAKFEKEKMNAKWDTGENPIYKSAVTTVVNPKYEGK

recombinant human α11β1 = molecular target: T3, recombinant human α11β1 (human, UniProt Q9UKX5 23-1141; P05556 21-728, limits assumed); experiment: SPR (Biacore T200), HIS-tagged human α11β1 captured by anti-HIS, antibody injected, single cycle kinetics, 1:1 model
T3 construct: HIS-tagged heterodimer captured by anti-HIS antibody in SPR; also called HIS-tagged human α11β1; soluble human α11β1
T3 sequence (P05556 21-728 limits assumed, chain 2 of 2, one chain of several): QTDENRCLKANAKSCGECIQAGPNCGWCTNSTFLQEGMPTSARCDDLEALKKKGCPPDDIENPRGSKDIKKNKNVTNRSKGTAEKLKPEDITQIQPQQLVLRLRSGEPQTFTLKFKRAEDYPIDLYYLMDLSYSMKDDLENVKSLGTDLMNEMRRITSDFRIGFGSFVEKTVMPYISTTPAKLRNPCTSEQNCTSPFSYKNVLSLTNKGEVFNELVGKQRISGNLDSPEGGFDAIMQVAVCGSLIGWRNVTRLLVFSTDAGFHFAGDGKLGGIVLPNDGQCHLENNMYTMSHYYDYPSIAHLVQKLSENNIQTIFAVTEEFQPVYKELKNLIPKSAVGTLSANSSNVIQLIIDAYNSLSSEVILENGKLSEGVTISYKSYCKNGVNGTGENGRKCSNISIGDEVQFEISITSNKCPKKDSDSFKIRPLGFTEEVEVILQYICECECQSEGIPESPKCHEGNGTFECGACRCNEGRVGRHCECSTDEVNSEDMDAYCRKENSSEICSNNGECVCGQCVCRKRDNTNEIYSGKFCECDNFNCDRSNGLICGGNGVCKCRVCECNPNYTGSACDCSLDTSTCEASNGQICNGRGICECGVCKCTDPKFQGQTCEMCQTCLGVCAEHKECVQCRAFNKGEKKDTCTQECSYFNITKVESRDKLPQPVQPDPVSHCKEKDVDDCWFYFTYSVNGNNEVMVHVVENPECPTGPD
Experimental: The affinity of antibodies for human α11β1 was measured by surface plasm on resonance assay (SPR). Affinity was measured at pH 7.6 and 25° C. with a Biacore T200 instrument. Anti-HIS antibody was immobilized on the SPR sensor surface using EDC/NHS covalent attachment. HIS-tagged human α11β1 was captured on the sensor surface and a single cycle kinetics assay was used. Increasing concentrations of test antibody were injected in series over the sensor-bound α11β1. Dissociation was monitored for 1000 seconds. A sensor surface with only anti-HIS antibody and a series of blank injections were used to double-reference subtract the data. A 1:1 Langmuir model was fit to the data to estimate the kinetic association and dissociation constants. The affinity (equilibrium dissociation constant) of the interaction was calculated by dividing the kinetic dissociation constant by the kinetic association constant. Between injection cycles α11β1 and bound antibody were removed with an injection of 10 mM glycine at pH 1.5.

[4] = molecular target: T1, human α11 expressed on CHO-K1 cells; experiment: cell-based or functional assay; remark: listed apart in the source
[5] = molecular target: T2, α11β1 on human pulmonary myofibroblasts; experiment: flow cytometry on human pulmonary myofibroblasts (title: Myofibroblast Binding); MFI against Log [µg/ml]
Experimental: as §2
Target sequence in this assay (P05556 21-798, chain 2 of 2, one chain of several): as the sequence (P05556 21-798, one chain of several) above

[6] = molecular target: T1, human α11 expressed on CHO-K1 cells; experiment: flow cytometry on CHO-K1 cells expressing human α11 (title: CHO-hu α11 Binding); MFI against Log [µg/ml]
Experimental: as §1

| Binder | CHO-hu α11 adhesion inhibition (IC50) [1] [nM] | EC50 [2] [nM] | EC50 [3] [nM] | Kd (recombinant human α11β1) [nM] | IC50 (read off the curve), inhibition of cell adhesion to type I collagen [4] [µg/mL] | EC50 (read off the curve) [5] [µg/mL] | EC50 (read off the curve) [6] [µg/mL] |
| --- | --- | --- | --- | --- | --- | --- | --- |
| B1 | 9.4 | 3.4 | 3.35 | 1.3 |  |  |  |
| B2 |  |  |  |  | ~0.6 | ~0.4 |  |
| B3 |  |  |  |  | ~0.5 | ~0.4 |  |
| B4 | 3.3 | 3.5 | 3.5 | 0.24 | ~0.5 | ~0.5 | ~0.4 |
| B5 |  |  |  |  | ~0.6 | ~0.6 | ~0.8 |
| B6 | 0.39 | 0.3 | 0.35 | 0.048 |  |  |  |
